System: R2Tg (Taeniopygia guttata)
Test: cell_activity
Conditions: homology-guided insertion without Cas9; RLE and RT dependent (Example 10 reports ~0.5%)

TCCTGAGTCGTGCTGCGTCGACAACGGTAGTGACGCGTATTGCCTGGAGGGCGGACGCCGGCATTCGCCGCGTGGTTCCCAGCGACCTGTATCCCCTCGT (double strand) [NOLC1 target (homology arms)]
activity: 0.1%

Reference: patent publication US20240035008
